According to paper PMC3254805:

Target: endogenous GSK3β (UniProt P49841)
Test: anti-FoxO3a IP, GSK3β blot
Conditions: reference: HA-FoxO3a-WT; sites T32,S253,S315

## FoxO3a (RLuc- or HA-tagged constructs, WT and TM) (from UniProt O43524) HA-FoxO3a-TM (triple mutant)
  binding against the reference: stronger
